Measured values from publication PMC8866485, “Cell surface nucleolin is a novel ADAMTS5 receptor mediating endothelial cell apoptosis” (Cell Death & Disease, 2022).

Tests used:
[1] = target: T1, Recombinant human NCL (FLAG-tagged, full length) (human, UniProt P19338 1-710); experiment: SPR; Biacore T200, CM5 chip; recombinant NCL captured by amine-coupled anti-NCL antibody; TS5-p45 as analyte, five dilutions, single-cycle kinetics; 25 C; HBST (10 mM HEPES, 150 mM NaCl, 50 uM EDTA, pH 7.4, 0.05% Tween-20); 1:1 model; details: both partners purified
T1 construct: Nucleolin (NCL), human, full length; also called rhNCL; recombinant NCL; source: bought: OriGene (TP319082)

[2] = target: T2, FLAG-tagged full-length NCL (NCL-FL 1-710) (UniProt P19338 1-710); experiment: ELISA; saturation binding: FLAG-NCL-FL from HEK293T whole cell lysate captured on anti-FLAG antibody-coated plate; TS5-p45 titrated, 4 C overnight; anti-His detection; details: one partner purified
T2 construct: Nucleolin (NCL), residues 1-710, in pCMV-Tag2; the length of 710 residues fits human nucleolin; source: HEK293T, transiently transfected, in whole cell lysate; not shown: FLAG, N-terminal, kept
T2 sequence (P19338 whole entry, the tested form may be a part): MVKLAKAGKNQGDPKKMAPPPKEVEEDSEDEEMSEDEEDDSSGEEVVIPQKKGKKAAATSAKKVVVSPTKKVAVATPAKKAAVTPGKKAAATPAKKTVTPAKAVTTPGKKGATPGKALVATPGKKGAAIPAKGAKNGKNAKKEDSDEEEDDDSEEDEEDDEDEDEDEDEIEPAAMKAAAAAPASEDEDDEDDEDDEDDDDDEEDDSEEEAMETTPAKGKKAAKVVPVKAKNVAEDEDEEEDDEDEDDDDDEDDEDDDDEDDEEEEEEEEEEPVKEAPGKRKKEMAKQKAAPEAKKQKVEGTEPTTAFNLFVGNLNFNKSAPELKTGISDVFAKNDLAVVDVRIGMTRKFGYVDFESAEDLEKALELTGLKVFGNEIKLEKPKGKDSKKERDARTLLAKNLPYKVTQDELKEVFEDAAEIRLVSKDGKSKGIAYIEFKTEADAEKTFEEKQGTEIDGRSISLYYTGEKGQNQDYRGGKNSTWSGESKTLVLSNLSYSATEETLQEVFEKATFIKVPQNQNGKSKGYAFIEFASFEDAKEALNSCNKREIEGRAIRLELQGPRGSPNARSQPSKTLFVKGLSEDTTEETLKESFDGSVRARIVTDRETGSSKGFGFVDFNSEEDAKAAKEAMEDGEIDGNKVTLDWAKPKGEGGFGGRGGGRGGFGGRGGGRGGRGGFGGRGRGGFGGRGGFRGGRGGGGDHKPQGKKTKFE

T1 sequence (P19338 whole entry): as the sequence (P19338 whole entry, the tested form may be a part) above

Kd [1]: ~28 nM | Kd [2]: ~26 nM
B1: Recombinant human TS5-p45 (C-terminal His-tagged, Ser262-Pro622 truncate of ADAMTS5) (domain or fragment, UniProt Q9UNA0 262-622, looked up)
chain: SISRARQVELLLVADASMARLYGRGLQHYLLTLASIANRLYSHASIENHIRLAVVKVVVLGDKDKSLEVSKNAATTLKNFCKWQHQHNQLGDDHEEHYDAAILFTREDLCGHHSCDTLGMADVGTICSPERSCAVIEDDGLHAAFTVAHEIGHLLGLSHDDSKFCEETFGSTEDKRLMSSILTSIDASKPWSKCTSATITEFLDDGHGNCLLDLPRKQILGPEELPGQTYDATQQCNLTFGPEYSVCPGMDVCARLWCAVVRQGQMVCLTKKLPAVEGTPCGKGRICLQGKCVDKTKKKYYSTSSHGNWGSWGSWGQCSRSCGGGVQFAYRHCNNPAPRNNGRYCTGKRAIYRSCSLMPCP
notes: ADAMTS5 (A Disintegrin and Metalloproteinase with Thrombospondin Motifs 5, aggrecanase-2), human, residues Ser262-Pro622; also called 45 kDa truncate of ADAMTS5; source: bought: R&D Systems (2198-AD-01M); not shown: His tag, C-terminal, kept
